Laboratory results as given in a protein production outcome set (Wang et al. 2014).

Test: label from the status in PepcDB records

## MDFFFVEYRDPLVGLIILTILVFVVAVANYIWKIFANKDEEQKLEKFIKKFEMDNAHKELLRNSSLSFGNLSFLAEIFTKSGEFEKATQIYLIALEKCKDKQEREFIFLSLAKVYFKAGFLERAKEVLLQALKLRPRNIQALKLLKIVYLKLRSYKENLELLECLFELNEDVQKERDFIKALELCTFNITDEEKKKKLLEFKIEDNPMLGRLVFEKYHMFLGQNFFDICDLLYRENEAFNLENQDFLEFFYALGKISKHDDTHQFVFKNSNFKMLKILKDNSFNAGLEFSYRCSECKNVMPLFFYHCPVCYEFNTCKIIYEVKNNETH
  protein production: failed

## MDFFTDQVKKKFSDKKPESSDPEPNHNKNKPGHTEPTTHKPGHGEPTTHKPVSNTDPTTHRPATNAELMASAKIVAEAAQAAARHESDKLDKAKVAGATADILDAASRYGKLDEKSGVGQYLEKAEQYLHKYETSHSHSSTGGTGSHGNVGGHGGGAGAPAAKKEDEKSGGGHGFGDYAKMAQGFMK
  protein production: failed

## MDFPQHSQHVLEQLNQQRQLGLLCDCTFVVDGVHFKAHKAVLAACSEYFKMLFVDQKDVVHLDISNAAGLGQVLEFMYTAKLSLSPENVDDVLAVATFLQMQDIITACHALKSLAEPATSPGGNAEALATEGGDKRAKEEKVATSTLSRLEQAGRSTPIGPSRDLKEER
  protein production: failed

## MDFRALALSLLLWLVPLWACANDQLDKLTQQVYQYPTKALAQITELEKQQQTDNTSNIDKLRLSILKCQNLLQLGENEAAINLAQMGEAHAKQLKLDQARPYFFNCQADAYLNYDNIQDALPLLDSAITLARRYQQPQALIDALRLRGQLDTNTDNFSSAIEDLRIAIDIYPDIHTQTQNWIWPPEAVGSPHNS
  protein production: failed

## MDFSDLDYSDAGDSGWTMYLGHSSSVSLHHFDYHNGETKQEHDEDSSMVSDASSGPPYYCEETVHEDHLQQNTQYWCKSKSKNKNKNKKKVHEEQGYSERFNSSFDDTASSLEKVNSGFLQQAFPVDKLALDNQGGDNQRKRRG
  protein production: failed

## MDFSLTEEQELLLASIRELITSNFPEEYFRTCDQTGTYPKEFMQALAENGISMLGVPEEFGGIPADYVTQMLALMEISKCGAPAFLITNGQCIHSMRRFGSAEQLRKTAESTLATGDPAYALALTEPGAGSDNNSATTTWTRKNGKVYLNGQKTFITGAKEYPYMLVLARDTEPKDPKKAFTLWWVDSNKPGIKINPLHKIGWHMLSTCEVYLDNVEVDESDRVGEEGMGFLNVMYNFEMERLINAARSTGFAECAFEDAARYANQRIAFGKPIGHNQMIQEKLALMAIKIENMRNMVLKVAWQADREESLRTSAALAKLYCARTAMEVIDDAIQIMGGLGYTDEARVSRFWRDVRCERIGGGTDEIMIYVAGRQILKDYQNK
  protein production: failed

## MDGEIDADELRSKLDEETVRVVDIRSPGAFERGHIPESENVPFPSLVDEVERFEGDDEVVTVCPKGKSSVQAARLIASYEGFDGDVVSFAPGLNGWDGPLERAEDEETPADTAAADRDSDEGPAAPF
  protein production: failed

## MDGRPLNRTTRAVAMIAVTIPAHNEQALIGPCLQSIRVAAQHPALQGEAVEIHVALDRCTDQTGVIARAHGAITQEVCGGVGVARAAAASAAIARGAHWLACTDADTRVPPDWLMAQLACAADAFCGVVEVTDWRDHLSQTRAAFLASEIRHDGHPHVHGANLGMRTSAYLAAGGFSNASSSEDVALVAALEQAGMRIARLASPVVNTSARRSARASGGFADYLLRLEAALLAASPSLGLEHHHHHH
  protein production: failed

## MDGSFVQHSVRVLQELNKQREKGQYCDATLDVGGLVFKAHWSVLACCSHFFQRIYGDGTGGSVVLPAGFAEIFGLLLDFFYTGHLALTSGNRDQVLLAAKELRVPEAVELCQSFQPQTSVGQAQSGLGQPASQDVKSHLKEPTDLDEEEVFKTLSLASVDQEPRDTEQPQLGTPAQSSTAFLCGKLTQALKPSPSEDKESEDCKEPPRPFEAGGAPLQGESNEWEVVVQVEDDRDGDYVSEPETVLTRRKSKVIRKPCAAEPALGAGSLTAEPTDSRKGAAVPVECPTCHKKFLSKYYLKVHNRKHTGEKPFECPKCGKCYFRKENLLEHEARNCMNRSEQVFTCSVCQETFRRRMELRLHMVSHTGEMPYKCSSCSQQFMQKKDLQSHMIKLHGAPKPHAVSASQGWGSGGSGTAQSCPHLDVLPLPVSPTCSAPLVPSASCLGRSYSCTRLLSIVEKSSLCVRNAGTGPRAATGCRCTSRPSTGMKGLMSVSSAAMPSPRRPTSTCTCARTPARSLSSATSVGRPSAPKFGQAQPHPHGREAFQL
  protein production: not failed

## MDGVLKGFFVVSIVLLIGYILGKTKALGPEGSKVLSTLTFMVGLPCLMFSAIASRHINDVLSATGLISVVTAVAVMLVFTVAGTIARWGVRRTTIGALSVGIVNSTNLGVPLSLYILGSATYVTPIMLFQLAIVTPIALTILDLTDPAGKKVSVWRTLSIPFRNPVTVAAILGVLVSALGIQLPSLVLDPLALVAQLAVPLMLIIFGMSLHGLSVRPGIDDRVPTTIAVILKSAIQPVLAWVLAAFVFQLDPFSTFVVTACAILPTGQNVVLYSVRYGVGQGIAQSTAVFTSILAVPLLLGAAWLFG
  protein production: failed

## MDGYNIFIVLLAVYIAGLVAIGWYFNKKQKSVTDFWLAGRRIGPSALGFSAAASWLTAGGILAVIGYYMLQGMGSIWAFVAPNILALLIIALLVGKIKNLPAITQPELLEQRYGSAVRWPIALIITVVMILFAVADVTGFSLVLQVFYGVDPLYAAAIVAIAVSLYVTMGGLSAVVWTDVVQFAFLSIFTIAMAFAAVGTVADGGLNTPAISSSELFGNVSYDWWNPLSIGIPMVLIFVFAIIPGWITEQDPWQKVWAAKDAKSARLGMVFGSLMITVVFAACAVIAIAFNNIYPDIAGMGFPAGMAQAEPALLAFVSERFVSAPLIVALSAIGLAAASMSCADTFATSGASCISRDIFQRYIKPDATMKEMLVVNRISVLIIVLAATAGSFVIPNIIDAIHIATFIASASYFFPLMGGLYWKRATKEGAFAGMVVGFVVQVTLVSLDLIKTPPMAANYLESVHPALMSHGVIVGMGLSAIAFFGVSLMTKPSSRINLAPFFEEEAEELAHYEAREIDEKDPTYGAFLKNVDEKVAGERAHLQLNLRASGALSWHELVEKLKSSSPAWVTPTGLDSVYRLTHGDMLACVTVTRGSEERDIWLKAEPRLETVGRQKKELFTAYEELKKVLGQKGVNLDFY
  protein production: failed

## MDGYTGSHVVRCALRLAPLVFVRPGELRKAEWKDIDLDGGEWRYTVTKTNTPHIVPLSTQAVEILKELQALTGRSRFVFPGARTNGRPMSDNAILAALRRMGIDKEEMSGHGFRAMARTILDEVLGVRPDFIEHQLAHSVRDPLEHHHHHH
  protein production: failed

## MDIKDLMKKWSEQAENMRMFHMQELKENGSEWKKLLQENLKDCKGKKVLDAGCGTGFLAILLAQDGWEVTAIDSSEAMLEEGKKTAEELGLSDKITFLLKDAHSTDFPEHLFDAVVSRHASWLFTAPETVYKEWKRILKPGGIMLNIDANWLKPIWNTDEFEKFKSYEAELVKQYGEFRDYYHDEQMINILKKFPLAYINRPEWDEKMLKKIDFKEIASRLLSKEKYMDAFQAARYKTIPMFVIKAKNIE
  protein production: failed

## MDIKKIAQDDKSLGIDESNKDLFQDGILNIALFGVDSREHDNVGRSDSIIIATIDTKHDKIKLTSLMRDSYVEVDGHGKTKLTHAYAYGGPTLALKTINENFGLDIKDYVTVNFDNLAEIIDDLGGVPINIKPYEVKEVNNYAKNVAEIAGREYTPVSEGEQVLNGAQAVGYSRIRYVGDGDYERTERQRNVLDAIIKKLSALKPSEYPETIKKLLPYVETNLTPSKILSIATSVASTGIPPVENMRFPLDGYCKGEMIDGVWYLTFDEAKTKEQIQDYIYKDVNPKLEHHHHHH
  protein production: failed

## MDILKLLMVAILIGLTAFFVAVEFAIIKVRSSRIDQLVSEKRRGALAAKKVTSNLDEYLSACQLGITITALGLGWLGEPTIKHLLEPLFLKLNLSPAIASTVSFIIAFAVITFLHVVIGELAPKTFAIQRAEQVSLLLSKPLIYFYRIMYPFIWALNGSARLVTGLFGLHPASEHEVAHSEEELRLILSESYESGEINQREFKYVNNIFEFDNRVAKEIMVPRTEVIGLYEDEPFETHIKIIAQEKYTRYPVFGEDKDEIIGMVNVKDLFIRYIDGNRDEECSITPYTRPVIEVLENIPIHDLLLQMQRKHIPLAVLYDEYGGTAGIVTLEDILEEIVGEIRDEYDEDEHPPIEHISEGCKIVEGKVLISEVNDLFGIHLIADDVDTIGGWIMVQKQIVAEGDIIEKHGFSFKVLEKDMHQIKRVEIKKVEE
  protein production: failed
